# Values quoted from earlier work in PMC3909715.
# Like-named read-outs stand apart in the source and are kept apart here.
# Assays:
# Cys34 [1] = target: T1, Cys34 (UniProt position 58, QYLQQCPFEDH); details: reduced thiol (HSA-SH); ligand state not stated
# Cys34 [2] = target: T1, Cys34; assay: kinetics; details: reduced thiol
# Cys34 [3] = target: T1, Cys34; assay: chemical modification; details: reduced thiol; ligand state not stated
substance,measurement,setting,value
Human serum albumin (HSA) (Homo sapiens),pKa,Cys34 [1],<7
same,pKa,Cys34 [2]; ligand-free (fatty acid-free) HSA,7.9±0.1
same,pKa,Cys34 [2]; ligand state not stated,about 8
same,pKa,Cys34 [3],about 8
